Consider seven molecules from PMC11910589.

Holding throughout (test): fluorescence polarization
For orientation: In fluorescence polarisation assays a small probe gives low polarisation when free and higher when bound to something large.

For data set [1], the target named is T1, dP75 PWWP (Drosophila melanogaster, UniProt Q9VAA9 9-90).
T1 sequence: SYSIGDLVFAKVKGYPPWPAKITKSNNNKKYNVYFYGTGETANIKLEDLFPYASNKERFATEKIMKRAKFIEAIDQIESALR

The target of data set [2] is T1, dP75 PWWP. This is another data set of the same source.
The target of data set [3] is LEDGF/p75 PWWP (Homo sapiens, UniProt O75475 4-89).
The target of data set [4] is T2, dP75 PWWP K53A (Drosophila melanogaster, UniProt Q9VAA9 9-90, K53A).
T2 sequence: T1 sequence with K45A

The target of data set [5] is T1, dP75 PWWP. The source holds these as a separate data set.
Data set [6] has as its target T3, dP75 PWWP F43A (Drosophila melanogaster, UniProt Q9VAA9 9-90, F43A).
T3 sequence: T1 sequence with F35A

In data set [7] the target is T4, dP75 PWWP E48A (Drosophila melanogaster, UniProt Q9VAA9 9-90, E48A).
T4 sequence: T1 sequence with E40A

Data set [8] addresses T5, dP75 PWWP Y23A (Drosophila melanogaster, UniProt Q9VAA9 9-90, Y23A).
T5 sequence: T1 sequence with Y15A

In data set [9] the target is T6, dP75 PWWP K38A (Drosophila melanogaster, UniProt Q9VAA9 9-90, K38A).
T6 sequence: T1 sequence with K30A

Data set [10] concerns the target T1, dP75 PWWP. The source holds these as a separate data set.

Substitutions are numbered along the chain they refer to. Like-named read-outs stand apart in the source and are kept apart here.

Sequence of LEDGF/p75 PWWP (O75475 4-89): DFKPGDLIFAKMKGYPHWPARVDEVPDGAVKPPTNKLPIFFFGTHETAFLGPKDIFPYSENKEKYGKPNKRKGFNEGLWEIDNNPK

Regarding GGGGGGGGGGGG (ssDNA) [FAM-12G (polyG)], the binding result in data set [1] is “no binding”.
As to AAAAAAAAAAAA (ssDNA) [FAM-12A (polyA)], in data set [2], the binding result was “no binding”.
What is called Kd is the concentration at which binding is half-saturated. High values mean a looser complex, low ones a tighter complex. With TTTTTTTTTTTT (ssDNA) [FAM-12T (polyT)], the binding result in data set [3], in data set [6] and in data set [8] was “no binding” each time. Besides, the Kd in data set [4] was found to be 109 ± 2.9 µM; in data set [5], 24.2 ± 1.1 µM; in [7], 64.2 ± 2.8 µM; in [9] it was 60.9 ± 0.9 µM.

B1: 12 bp poly(A:T) (dsDNA)
DNA 1: TTTTTTTTTTTT
DNA 2: AAAAAAAAAAAA
Consider B1, for which the affinity in [10], expressed as Kd, was 18.2 ± 1.17 µM.

B2: 20 bp random (dsDNA)
DNA 1: CGATCTGCGTCAGCTGTAGC
DNA 2: GCTACAGCTGACGCAGATCG
B2: the binding result in data set [5] is on record as “no binding”.
Take CCCCCCCCCCCC (ssDNA) [FAM-12C (polyC)]: the Kd in data set [5] was 151 ± 38.9 µM.

B3: 12 bp poly(G:C) (dsDNA)
DNA 1: GGGGGGGGGGGG
DNA 2: CCCCCCCCCCCC
Consider B3, for which the binding result in data set [5] is recorded as “no binding”.
